In assay [1] the target is T1, rHuman IGF-1 sR, CF (R&D Systems Cat#391-GR) (human, UniProt P08069 31-932).
T1 construct: Bought soluble receptor; also called insulin-like growth factor-1 soluble receptor; IGF-R1
Put plainly: ECL (MSD multi-spot) titration, Fab at 1.19 uM; blank spot 24999.

The target in assay [2] is T2, rHuman Notch-1/Fc Chimera, CF (R&D Systems Cat#3647-TK) (human, UniProt P46531 19-526).
T2 construct: Bought protein; not shown: Fc of the bought chimera
The description is as above.

Assay [3] concerns the target T3, rHuman Erythropoietin R/Fc Chimera, CF (R&D Systems Cat#963-ER) (human, UniProt P19235 25-250).
T3 construct: Bought protein; also called EPO R/Fc; EPOR; not shown: Fc of the bought chimera
T3 sequence: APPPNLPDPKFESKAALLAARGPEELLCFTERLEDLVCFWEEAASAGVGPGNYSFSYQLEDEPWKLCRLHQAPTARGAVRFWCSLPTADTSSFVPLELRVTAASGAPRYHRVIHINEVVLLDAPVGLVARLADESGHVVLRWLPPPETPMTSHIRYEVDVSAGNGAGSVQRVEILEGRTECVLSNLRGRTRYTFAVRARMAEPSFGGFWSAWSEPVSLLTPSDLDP
The assay is described as above.

Assay [4] addresses T4, rHuman EGF R/Fc Chimera, CF (R&D Systems Cat#344-ER) (human, UniProt P00533 25-645).
T4 construct: Bought protein; also called epidermal growth factor receptor; not shown: Fc of the bought chimera
The description is as above.

Assay [5] addresses T5, Recombinant Human DLL4 (R&D Systems Cat#1506-D4/CF) (human, UniProt Q9NR61 27-524).
T5 construct: Bought protein; also called delta-like protein 4
Described as above.

The target of assay [6] is T6, rHuman P-Cadherin/Fc Chimera, CF (R&D Systems Cat#861-PC) (human, UniProt P22223 108-654).
T6 construct: Bought protein; not shown: Fc of the bought chimera
The assay is described as above.

The target of assay [7] is T1, rHuman IGF-1 sR, CF (R&D Systems …). Put plainly: ECL (MSD multi-spot) titration, Fab at 0.07438 uM; blank spot 2504.
The target in assay [8] is T2, rHuman Notch-1/Fc Chimera, CF (R&D …). Described as above.
Assay [9] concerns the target T3, rHuman Erythropoietin R/Fc Chimera, CF …. Described as above.
Assay [10] has as its target T4, rHuman EGF R/Fc Chimera, CF (R&D …). The assay is described as above.
In assay [11] the target is T5, Recombinant Human DLL4 (R&D Systems …). The assay is described as above.
Assay [12] deals with T6, rHuman P-Cadherin/Fc Chimera, CF (R&D …). The assay is described as above.
In assay [13] the target is T1, rHuman IGF-1 sR, CF (R&D Systems …). The assay can be described thus: ECL (MSD multi-spot) titration, Fab at 0.2975 uM; blank spot 5019.
Assay [14] deals with T2, rHuman Notch-1/Fc Chimera, CF (R&D …). The assay is described as above.
Assay [15] deals with T3, rHuman Erythropoietin R/Fc Chimera, CF …. Described as above.
Assay [16] deals with T4, rHuman EGF R/Fc Chimera, CF (R&D …). The assay is described as above.
Assay [17] concerns the target T5, Recombinant Human DLL4 (R&D Systems …). The description is as above.
In assay [18] the target is T6, rHuman P-Cadherin/Fc Chimera, CF (R&D …). Described as above.
Assay [19] deals with T1, rHuman IGF-1 sR, CF (R&D Systems …). Put plainly: ECL (MSD multi-spot) titration, Fab at 0.01859 uM; blank spot 1776.
Assay [20] has as its target T2, rHuman Notch-1/Fc Chimera, CF (R&D …). The assay is described as above.
For assay [21], the target named is T3, rHuman Erythropoietin R/Fc Chimera, CF …. Described as above.
Assay [22] concerns the target T4, rHuman EGF R/Fc Chimera, CF (R&D …). Described as above.
Assay [23] deals with T5, Recombinant Human DLL4 (R&D Systems …). The description is as above.
Assay [24] has as its target T6, rHuman P-Cadherin/Fc Chimera, CF (R&D …). The description is as above.

Results on one molecule are retold here after patent US20120058906A1 (published 2012).
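Further: blank spot per well as comparator with Hit at signal to blank ratio of 4 or more.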

B1: Fab VH1-46_IGHD6-13*01_IGHJ4*01 & L2_IGKJ1*01 (Fab, V domains shown)
VH: QVQLVQSGAEVKKPGASVKVSCKASGYTFTSYYMHWVRQAPGQGLEWMGIINPSGGSTSYAQKFQGRVTMTRDTSTSTVYMELSSLRSEDTAVYYCAREGYSSSWYDYFDYWGQGTLVTVSS
VL: not shown
notes: also called Fab No. 7
Turning to B1, the ECL signal was 35200 in assay [1]; 72000 in assay [2]; 193000 in assay [3]; 62500 in [4]; 74900 in assay [5]; 69700 in [6]. The ECL signal in assay [7] was determined as 5800; in assay [8] it was 22000; in assay [9], 154000; in assay [10] it was 16600; in [11], 20700; in [12], 14800. Further, the ECL signal turned out to be 17400 in assay [13]; 37500 in [14]; 167000 in assay [15]; 42200 in assay [16]; 34700 in assay [17]; 26000 in assay [18]. Further, the ECL signal in assay [19] was 3780; in assay [20] it was 17600; in assay [21], 188000; in assay [22], 11800; in assay [23] it was 18900; in assay [24], 11700.
